For 1 molecule, Kd results are on record in patent publication US20120100161A1 (DEUTSCHES KREBSFORSCHUNGSZENTRUM, published 2012).

The test has as its target T1, Epithelial cell adhesion molecule (EpCAM, CD326) (human, UniProt P16422 24-314).
T1 construct: whole, on cells; Endogenous EpCAM on carcinoma cell lines; also called EpCAM antigen
T1 sequence (looked up): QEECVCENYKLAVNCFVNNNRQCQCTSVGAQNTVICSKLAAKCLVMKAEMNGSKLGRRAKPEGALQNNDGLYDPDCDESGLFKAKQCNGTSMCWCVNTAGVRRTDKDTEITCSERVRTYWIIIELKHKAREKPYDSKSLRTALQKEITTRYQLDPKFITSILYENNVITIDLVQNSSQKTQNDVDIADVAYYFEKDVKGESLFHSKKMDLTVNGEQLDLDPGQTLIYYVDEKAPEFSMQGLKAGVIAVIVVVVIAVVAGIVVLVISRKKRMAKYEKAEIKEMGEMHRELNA
As to the kind of experiment: binding to EpCAM-expressing cells; method not stated.

B1: chimeric antibody huHEA125 (antibody, human IgG1, kappa)
heavy: not shown
light: DILLTQSPAILSVSPGERVSFSCRASQSIGISLHWYQQRPSDSPRLLIKYASESISGIPSRFSGSGSGTDFTLSINSVESEDIADYYCQQSNIWPTTFGAGTKLELKRTVAAPSVFIFPPSDEQLKSGTASVVCLLNNFYPREAKVQWKVDNALQSGNSQESVTEQDSKDSTYSLSSTLTLSKADYEKHKVYACEVTHQGLSSPVTKSFNRGEC
notes: Mouse HEA125 variable domains on human kappa and human IgG1 constant regions; also called unmodified huHEA125 antibody; non-conjugated huHEA125 antibody
In general, Kd refers to the constant that tells how readily two partners part at equilibrium. Read a low Kd as higher affinity. Take B1: binding was characterised by a dissociation constant (Kd) of 2.2 nM.
